These results are taken from US20150098945A1 (Daiichi Sankyo, published 2015).

For the experiment, the target named is T1, N-terminal FLAG-tagged cynomolgus monkey ROBO4, cynoROBO4-1 (pCI-FLAG-cynoROBO4-1) (cynomolgus monkey, UniProt Q8WZ75 28-1007 (human entry)).
T1 chain: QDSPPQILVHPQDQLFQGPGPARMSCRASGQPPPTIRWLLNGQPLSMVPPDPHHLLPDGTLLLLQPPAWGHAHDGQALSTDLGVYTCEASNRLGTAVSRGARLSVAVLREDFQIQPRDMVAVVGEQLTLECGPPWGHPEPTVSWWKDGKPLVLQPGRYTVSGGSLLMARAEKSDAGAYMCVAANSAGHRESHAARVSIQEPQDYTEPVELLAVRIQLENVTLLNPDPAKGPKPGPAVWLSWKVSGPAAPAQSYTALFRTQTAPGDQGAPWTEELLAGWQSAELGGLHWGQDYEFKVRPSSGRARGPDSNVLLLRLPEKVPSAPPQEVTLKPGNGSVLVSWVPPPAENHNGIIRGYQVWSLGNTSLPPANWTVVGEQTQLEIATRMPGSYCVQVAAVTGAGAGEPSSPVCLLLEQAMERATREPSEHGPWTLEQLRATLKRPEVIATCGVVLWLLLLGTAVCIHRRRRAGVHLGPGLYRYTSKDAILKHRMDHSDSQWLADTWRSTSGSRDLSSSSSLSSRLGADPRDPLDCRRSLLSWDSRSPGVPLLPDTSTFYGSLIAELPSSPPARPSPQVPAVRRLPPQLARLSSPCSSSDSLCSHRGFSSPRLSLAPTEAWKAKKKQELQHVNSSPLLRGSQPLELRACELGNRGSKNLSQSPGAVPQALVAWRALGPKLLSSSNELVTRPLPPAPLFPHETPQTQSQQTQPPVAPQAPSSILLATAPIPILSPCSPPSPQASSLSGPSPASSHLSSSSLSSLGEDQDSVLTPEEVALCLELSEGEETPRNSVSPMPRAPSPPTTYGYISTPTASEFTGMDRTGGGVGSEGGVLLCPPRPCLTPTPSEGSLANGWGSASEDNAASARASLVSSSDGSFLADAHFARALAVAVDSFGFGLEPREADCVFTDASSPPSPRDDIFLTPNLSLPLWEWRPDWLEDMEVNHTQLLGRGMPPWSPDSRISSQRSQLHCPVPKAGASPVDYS
Briefly: flow cytometry, HEK293 cells transfected with pCI-FLAG-cynoROBO4-1, antibody at 10 µg/mL, anti-mouse IgG FITC; control histogram IgG (Mouse IgG2a). Here is the method:
HEK293 cells were inoculated at a concentration of 1.5×10⁶ cells/dish to a 60-mm dish (manufactured by Corning Inc.) and cultured overnight in a DMEM medium containing 10% FBS at 37° C. under 5% CO₂ conditions. On the next day, the HEK293 cells were transfected with pCI-hROBO4, pCI-mROBO4, pCI-raROBO4, pCI-FLAG-cynoROBO4-1, pCI-FLAG-cynoROBO4-2, pCI-hROBO1, pCI-hROBO2, or pCI-hROBO3 using FuGENE6 Transfection Reagent and further cultured overnight at 37° C. under 5% CO₂ conditions. On the next day, the expression vector-transfected cells were treated with TrypLE Express (manufactured by Life Technologies Corp.), washed with PBS containing 5% FBS, and then suspended in PBS containing 5% FBS. The obtained cell suspension was used in flow cytometry analysis.
Each cell suspension prepared in 4)-3-1 was centrifuged, and the supernatant was removed. Then, MAb1 or a negative control Mouse IgG2a was added at a concentration of 10 μg/mL to 2×10⁵ expression vector-transfected cells, and the resulting suspension was left standing at 4° C. for 1 hour. […] Data was analyzed using Flowjo. The histogram of FITC fluorescence intensity was prepared. The antibody was determined to bind in a cross-species manner when the histogram of MAb1 was shifted to a stronger fluorescence intensity region compared with the histogram of the negative control Mouse IgG2a.

B1: anti-ROBO4 mouse monoclonal antibody MAb1 (antibody, mouse IgG1, V domains shown)
VH: EVQLVESGGGLVKPGGSLKLSCAASGFTFSTYAMSWVRQTPEKRLEWVATISNGGTYTYYPDSVKGRFTISRDNAENTLYLQMSSLRSEDTAMYFCARLIYYDYLDYWGHGTTLTVSS
VL: DAVMTQTPLSLPVSLGDQASISCRSSQSLENSNGNTYLNWYFQKPGQSPQLLIYRVSNRFSGVLDRFSGSGSGTDFTLKISRVEAEDFGVYFCLQVTHVPWTFGGGTKLEIKR
notes: Mouse IgG1 (gamma1), kappa light chain, purified from hybridoma supernatant; also called parent antibody MAb1
Turning to B1, the binding result is given as “binds”.
